Experimental data as given in PMC12108596, “Functional Characterization of MIP_07528 of Mycobacterium indicus pranii for Tyrosine Phosphatase Activity Displays Sensitivity to Oxidative Inactivation and Plays a Role in Immunomodulation” (Biology, 2025).

Tested on: O=[N+]([O-])c1ccc(OP(=O)(O)O)cc1
Experiment: purified protein
[1] = pH 7.5 (20 mM Tris, 150 mM NaCl), 37 °C, 2-8 mM pNPP

Substance | Km (pH 7.5, 37.0 °C) | Km [1] | kcat [1]
rPtpB-Mtb (rMTBPtpB) (Mycobacterium tuberculosis H37Rv) | 1010 µM | – | –
rMIP_07528 (rPtpB-MIP, rMIPPtpB) (Mycobacterium intracellulare ATCC 13950) | – | 300 µM | 0.005 s⁻¹
